Assay results reported in article PMC6007550 (Nucleic Acids Research, 2018).
Changes are numbered by the printed parent chain. Names and notes keep the numbering of the source.

Molecular target: the molecule itself
Experiment: crystal structure

B1: Sin R54E/I113V catalytic domain (residues 1-128) (domain or fragment, UniProt P20384 1-128, looked up)
chain: MIIGYARVSSLDQNLERQLENLKTFGAEKIFTEKQSGKSIENRPILQKALNFVEMGDRFIVESIDRLGRNYNEVIHTVNYLKDKEVQLMITSLPMMNEVIGNPLLDKFMKDLVIQILAMVSEQERNES
modifications: selenomethionine in place of methionine
  stoichiometry N: 4

B2: Sin R54E/I100T/Q115R catalytic domain (residues 1-128) (domain or fragment, UniProt P20384 1-128, looked up)
chain: B1 chain with I100T, V113I, Q115R
modifications: selenomethionine in place of methionine
  stoichiometry N: 4

B3: Sin R54E/T77I/I100T/Q115R catalytic domain (residues 1-128) (domain or fragment, UniProt P20384 1-128, looked up)
chain: B1 chain with T77I, I100T, V113I, Q115R
modifications: selenomethionine in place of methionine
  stoichiometry N: 4

B4: Sin R54E/I100T catalytic domain (residues 1-128) (domain or fragment, UniProt P20384 1-128, looked up)
chain: B1 chain with I100T, V113I
modifications: selenomethionine in place of methionine
  stoichiometry N: 4
